Reference: patent US20130090249A1 (CENTRE NATIONAL DE LA RECHERCHE SCIENTIFIQUE CNRS, published 2013)

Tests used:
[1] = biological target: T1, Lingo-1-HA (human, UniProt Q96FE5 42-620); test: BRET competition in live HEK-293 cells; the competitor may take the place of either the RLuc or the YFP partner
T1 construct: also called Lingo-HA; HA-tagged whole Lingo-1 protein
T1 sequence: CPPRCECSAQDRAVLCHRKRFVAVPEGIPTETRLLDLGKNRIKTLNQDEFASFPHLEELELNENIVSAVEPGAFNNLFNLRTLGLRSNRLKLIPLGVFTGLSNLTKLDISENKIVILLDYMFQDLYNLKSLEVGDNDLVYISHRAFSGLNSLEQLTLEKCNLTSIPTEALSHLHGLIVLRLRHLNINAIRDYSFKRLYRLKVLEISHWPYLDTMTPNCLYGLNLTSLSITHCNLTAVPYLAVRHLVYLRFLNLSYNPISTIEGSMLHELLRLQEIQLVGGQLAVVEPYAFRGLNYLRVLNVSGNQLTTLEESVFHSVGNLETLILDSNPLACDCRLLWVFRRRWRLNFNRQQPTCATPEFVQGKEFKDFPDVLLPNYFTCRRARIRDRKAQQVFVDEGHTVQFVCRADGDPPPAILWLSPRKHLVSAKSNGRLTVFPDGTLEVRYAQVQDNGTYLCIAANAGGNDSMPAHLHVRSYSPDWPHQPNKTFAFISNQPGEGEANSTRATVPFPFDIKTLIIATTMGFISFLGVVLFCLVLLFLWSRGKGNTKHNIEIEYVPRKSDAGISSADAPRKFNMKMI
Experimental: (§1) HEK-293 cells were transfected with the Lingo-1-RLuc and Lingo-1-YFP fusion proteins (the donor/acceptor ratio remains constant) and increasing concentrations of the whole Lingo-1 protein (Lingo-1-HA, amino acids 1-620) or the dominant negative thereof (DN-HA, amino acids 1-577) tagged with HA. The BRET measurement was carried out 48 hours after the transfection on live cells.
(§2) The BRET signal obtained between the Lingo-1-RLuc and Lingo-1-YFP proteins is therefore specific and can be modulated. […] In addition, when increasing concentrations of HA-tagged Lingo-1 protein were added (Lingo-1-HA at 0, 200, 400, 800, 1600 and 2600 ng), the BRET signal decreased (FIG. 5b); thereby making it possible to plot inhibition curves.

[2] = biological target: T2, DN-Lingo-1-HA (human, UniProt Q96FE5 42-577); test: as above
T2 construct: Residues 1-577 are counted on the 620-amino-acid human Lingo-1 (NP-116197); Expressed in HEK-293 cells; also called DN-HA; HA-tagged dominant negative of Lingo-1
T2 sequence: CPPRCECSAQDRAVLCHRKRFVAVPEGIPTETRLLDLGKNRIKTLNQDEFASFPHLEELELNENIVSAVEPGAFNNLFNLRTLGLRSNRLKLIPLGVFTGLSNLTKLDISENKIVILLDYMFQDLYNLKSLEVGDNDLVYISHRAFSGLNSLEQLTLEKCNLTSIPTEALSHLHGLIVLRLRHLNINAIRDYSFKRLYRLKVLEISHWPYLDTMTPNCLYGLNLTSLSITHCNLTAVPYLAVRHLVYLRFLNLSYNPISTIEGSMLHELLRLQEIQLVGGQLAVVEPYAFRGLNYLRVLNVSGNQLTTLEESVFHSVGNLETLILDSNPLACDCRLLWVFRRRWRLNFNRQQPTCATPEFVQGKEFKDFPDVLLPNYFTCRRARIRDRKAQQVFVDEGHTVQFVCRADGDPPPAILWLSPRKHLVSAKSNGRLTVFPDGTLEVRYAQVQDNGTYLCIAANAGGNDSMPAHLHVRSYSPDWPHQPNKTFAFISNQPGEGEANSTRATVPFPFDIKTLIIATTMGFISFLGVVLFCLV
Experimental: as §1, §2

B1: Lingo-1-RLuc (other)
chain: CPPRCECSAQDRAVLCHRKRFVAVPEGIPTETRLLDLGKNRIKTLNQDEFASFPHLEELELNENIVSAVEPGAFNNLFNLRTLGLRSNRLKLIPLGVFTGLSNLTKLDISENKIVILLDYMFQDLYNLKSLEVGDNDLVYISHRAFSGLNSLEQLTLEKCNLTSIPTEALSHLHGLIVLRLRHLNINAIRDYSFKRLYRLKVLEISHWPYLDTMTPNCLYGLNLTSLSITHCNLTAVPYLAVRHLVYLRFLNLSYNPISTIEGSMLHELLRLQEIQLVGGQLAVVEPYAFRGLNYLRVLNVSGNQLTTLEESVFHSVGNLETLILDSNPLACDCRLLWVFRRRWRLNFNRQQPTCATPEFVQGKEFKDFPDVLLPNYFTCRRARIRDRKAQQVFVDEGHTVQFVCRADGDPPPAILWLSPRKHLVSAKSNGRLTVFPDGTLEVRYAQVQDNGTYLCIAANAGGNDSMPAHLHVRSYSPDWPHQPNKTFAFISNQPGEGEANSTRATVPFPFDIKTLIIATTMGFISFLGVVLFCLVLLFLWSRGKGNTKHNIEIEYVPRKSDAGISSADAPRKFNMKMISRDPPVATMTSKVYDPEQRKRMITGPQWWARCKQMNVLDSFINYYDSEKHAENAVIFLHGNAASSYLWRHVVPHIEPVARCIIPDLIGMGKSGKSGNGSYRLLDHYKYLTAWFELLNLPKKIIFVGHDWGACLAFHYSYEHQDKIKAIVHAESVVDVIESWDEWPDIEEDIALIKSEEGEKMVLENNFFVETMLPSKIMRKLEPEEFAAYLEPFKEKGEVRRPTLSWPREIPLVKGGKPDVVQIVRNYNAYLRASDDLPKMFIESDPGFFSNAIVEGAKKFPNTEFVKVKGLHFSQEDAPDEMGKYIKSFVERVLKNEQ
notes: also called hLingo-1-RLuc
B1: binds [1]; binds [2].
